Assay: label from the status in PepcDB records

MAKYVVTSAWPYVNHVPHLGTLIGSVLSADIYARYLRLRGRQVVFVSGSDEHGTPIELEARKKGVHPKELTDQVHEYDVKMWREYRISFDNYSRTESPVHKEFVMEFMKKLEENGYIFSQEEVLPYCERDKIFLPDRFVEGTCPYCGYEKARGDQCDECGRLLHPTELKNPRCALCGSKPVYKSTRHWFIDLRRVQDRLLKWLESHGELQDSVKKYSINWVAQGLKPRSVTRDLSWGVPAPFKGAEGKTIYVWFDALLGYVSATKELFIMRRGDPEEWKSWWWDSGTRTVYFIGKDNIPFHAIILPALFLASHDPYVLPWRISATEYLMYEGQQFSKSRRIGVWIDEALEIAPADYWRWALARMRPEARDTNFTWKEFYRIVNTELNDDIGNFVNRVLSLVRSRMSGVAPEPEDLGEHQGFVERVRRAAWAVAEDLEAIRIKRATEGILEIAREGNAYLNRTQPWKLLSQDREEGVRALSAALYAVKTLAHLLAPFTPDAADRLWSMLGLAGSVHEAVWDEWLDRPLPGGARIVRVEPLFQKLPDDFLERVDEIVEDARRRAREKRPPLLRD
protein production: failed

VTSDPGTAAPVKRTAEQSRSLIVDAAGRAFATRPYREITLKDIAEDAGVSAPLIIKYFGSKEQLFDALVDFRAAAEIVFSGPLDGLGERMVSMFARPLEPYKPLSLNILFMSGPSEESSRKLRANYSAQMIDALAERLPGRDARLRAELVMSMLTGLAVMRRKMMQEHATGTPEEVVAHYAPLVQELLDG
protein production: not failed

MSESPTAGRASLAPLREFITGLSALLDEQPGEARILREGGALLARLVARDDWLPDAFAQPHPEYYQQMLLHCDSAERFSIVSFVWGPGQRTPIHDHTVWGLIGMLRGAEYSQPFVLDGSGRPVLHGEPTRLEPGHVEAVSPTVGDIHRVHNAYDDRVSISIHVYGANIGGVRRSVYTEAGERKPFISGYSNPYLPNPWDRSKDSAAS
protein production: not failed

MPIIKTLTKATKLEKEKFTIPKSVQDAIPIQRIWPDGIFQVGSRFSKTFSFTDINYSIASKDDKTAMFLDYSELLNALDSGASAKITIHNRRIDKAQFEKSLLLPMREDGLDHFRREYNEMLLSKVTGTNNSVVQDRYITITVAKRNIDEARTYFSRVGTDLINHLSQLSSVGRELDAAARLQLFRDFFKGSEPAAFAFDLREHMKKGHSFKDWLCPDSMEFQKDHFRIDERWGRVLYLQDYATYIKDSMIAELCDMDRSLMLAIDVLPVPTDEAVREIQNKLLGVETNAANWQRKQNAANNFSAVLPYDMEQQRKETKEMLDDLTNRDQRMMFGLVTLVHLADTKEQLDSDTETILTVARKHLCQMSTLRWQQKDGLDTVLPYGLRKIHALRTLTTESTAVLIPFRAQEILQGGGIYYGQNAVSKNMIVADRRKLLNGNSFRLGVSGSGKSFSAKEEIVSIALSTDDDILILDPESEFGFLTEALGGEVIRVSASSDTHINALDMDKAYGDERNPLIEKSEFILSLFEQLVGAGGVSAKEKSILDRCTYDVYREYMANNYQGEVPTLKDLYQSLLKQPEPEARGLALSSELFITGSLNTFAQPTNVDTKARIIAYDIRELGEQLMPIGMLVTLDAIFNRVIQNWKKGKTTWVFADEFYLLFRYQYSADFFYKLWKRIRKYNGLVTGLTQNVEELLRSDTARLMLANSEFLILLNQSPTDRDELAGLLHISDTQLGYITNVSAGCGLIRCAGNIVPFENSFPRNTRLYQLMTTKPDEALRGVLEHHHHHH
protein production: failed

MTEEQLQALRAAISVCRRCRDEPARGEGHRLPHEPRPVAVLSASARILIAGQAPGLRVHESGLPFNDASGDRLRQWLSVDRAAFYDQRNFAIVPMGFCFPGYDRHGSDLPPRSECAPLWRQRAMDAMPQIELVLAVGHYAQRWHLGTDCPKSMTETVRNWQRYAKRNSGISVLPLPHPSWRNTGWLRRHPWFEAELLPFLRERVQALTI
protein production: failed

MDMRSHEMIERRREDNGNNNGGVVISNIISTNIDDNCNGNNNNTRVSCNSQTLDHHQSKSPSSFSISAAAKPTVRYRECLKNHAASVGGSVHDGCGEFMPSGEEGTIEALRCAACDCHRNFHRKEMDGVGSSDLISHHRHHHYHHNQYGGGGGRRPPPPNMMLNPLMLPPPPNYQPIHHHKYGMSPPGGGGMVTPMSVAYGGGGGGAESSSEDLNLYGQSSGEGAGAAAGQMAFSMSSSKKRFRTKFTTDQKERMMDFAEKLGWRMNKQDEEELKRFCGEIGVKRQVFKVWMHNNKNNAKKPPTPTTTL
protein production: failed

MRLPLNQRVAILLHEGTTGTIGKTGLALLRYSEAPIVAVIDRNCAGQSLREITGIYRYVPIVKSVEAALEYKPQVLVIGIAPKGGGIPDDYWIELKTALQAGMSLVNGLHTPLANIPDLNALLQPGQLIWDVRKEPANLDVASGAARTLPCRRVLTVGTDMAIGKMSTSLELHWAAKLRGWRSKFLATGQTGVMLEGDGVALDAVRVDFAAGAVEQMVMRYGKNYDILHIEGQGSLLHPGSTATLPLIRGSQPTQLVLVHRAGQTHNGNNPHVPIPPLPEVIRLYETVASGGGAFGTVPVVGIALNTAHLDEYAAKEAIAHTIAETGLPCTDVVRFGADVLLDAVMQN
protein production: not failed

KKLCGYLSKFGGKGPIRGWKSRWFFYDERKCQLYYSRTAQDANPLDSIDLSSAVFDCKADAEEGIFEIKTPSRVITLKAATKQAMLYWLQQLQMKRWEFHNSPPAP
protein production: not failed

MAGTIAIKNGYVFDPLNEINGEKMDIFIRDGKVVKELSASEMKTSRVIDASGMTVMPGGVDSHSHVAGAKVNAGRSMRPEDHYKANLKKTPLTHSGSGYTVPSVYKQGYDYAAMGYTTVFEAAVPPLEARHTHEEMRATPLLDMGGYLVLGNNFFLMRYLRDGDMEKAAAYVAWMMKTHKTYGIKCVNPAGVENWAWGKNVSTLDETNIHFEITPREVIKGLTEVNETLGMPMPVHLHANNLGHPGCYAITKDSLKIPDGVKTKQNMAVEWAETKMDLSRDRSVYLTHLMFNSFAGTTWGDCESGVKDIADYINNKDHVVIDSGCTPFGEATVMTGDGPAIHDLYTLTGNKWSNTDVEMECGSGVLPFTYLKSNPVHSLQWAMGLECLLLIKDPWKTIMTTDSPNGGPFTKYPEVMTWIMSEAFRKQTFSECHKWANDRSELGGINRELSLYDLAILTRANPAKTIGMAHRKGSLGVGADGDVTVYNINPQQLDANNYEALLRTFRKAEYTVKGGEIVAVKGEIVSLPEKRTYYSEVHVENEREKEMLVDVKEWFRYYTLGFANYSTPEKYLANPTPIQVNSER
protein production: failed

MSDEVPEILLAHYLKTLKLPTFQREYQKLARLCATEGVDHVEYLLRLSEREMIERDRRKVERRIKAARFPVVKSLDSFDFAAIPKLNKMQVLELARCEWIERRENVIALGPSGTGKTHVALGLGLAACQKGLSVGFTTAAALVSEMMEARDERRLLRFQKQMAAYQLLIIDELGFVPLSKTGAELLFELISQRYERGATLITSNLPFDEWTETLGSERLTGALLDRITHHVNILEMNGDSYRLAQSRARKAGLEHHHHHH
protein production: not failed

LVKETACAVVDKLKSGEVTPIEVLDVLEERIAEVDGAINALPTLCFDRARGHAAELMKKPPAERGLLAGLPVPIKDLTAVAGVLTTQGSPIYKDNVPARSDLMVEHLEGNGGVVYAKSNTPEFGAGANTFNEVFGATRNPWDLSRSAAGSSGGAAAALASGTAWLAHGSDMGGSLRNPASFCGIVGLRPSFGRVAHTPAAKIDRNLGVQGPMARNVEDVALLLDAMSGEYAADPLSIPSPATSFLAAARSRQKPLRVAYSPDLGITPVDPEVAAVTRKAAERFAEAGVIVEQAQPDLSEAHECFQALRAFDFAISKADLLRTKRDLLKPEVIWNIEQGLKLSVDDLAKAEAQRVAMTARTIEFFKTYDLLLCPATITAPFPVEQRYLAECNGHTFGNYVEWLGIVYAITLVCCPALSLPCGFTATGLPIGLQMVARPRNEAGLLAGAALLEDILGLKSTTP
protein production: failed

MNIRHIRNATAVIEYGGKRILIDPMLSDKGSFDPFPNSPRQDQKNPLVELPMAIEDIINDIDLVILTHLHIDHFDPKAIEVLPKDIKIYAQNEEDASEVERYGFTNVSVFNDVTHIGEIELIKTDAQHGHGEILKMTGHVHGMILKHSEEPTLYLAADTVWFEGVEKALKTYQPDVVVLNGGANQFFEGGPLVMDEHDVLKVANTLPLAQIVVVHMEAVNHWHLSRKELNEFINSNDLGNRVVVPNDGELLTFEK
protein production: failed

TRMAPVIMVPGSSASQNRFDSLITELGKETPKKHSVLKLTVQTDGTIKYSGSIAANDNEPFIVIGFANNRDGKANIDKQAVWLNTAFKALVKTYHFNHFYALGHSNGGLIWTLFLERYLKESPKVHIDRLMTIASPYNMESTSTTAKTSMFKELYRYRTGLPESLTVYSIAGTENYTSDGTVPYNSVNYGKYIFQDQVKHFTEITVTGANTAHSDLPQNKQIVSLIRQYLLAETMPDKVRQKNAQRVQN
protein production: not failed

Source: a protein production outcome set (Wang et al. 2014)
